Results taken from the Human Domainome abundance scans (Beltran et al. 2025).
± gives the uncertainty stated by the source.

B1: Glucocorticoid receptor, residues 419 to 494; numbered along this chain, P04150 (parent)
chain: KLCLVCSDEASGCHYGVLTCGSCKVFFKRAVEGQHNYLCAGRNDCIIDKIRRKNCPACRYRKCLQAGMNLEARKTK

Variants of: B1
Test: abundance fitness (aPCA) (normalised: wild type 0, dead -1); higher = more abundant; growth selection in yeast, the domain comes from the species named
Details: Homo sapiens

Variant	abundance fitness
Y37D	-0.144 ± 0.068
D48C	-0.529 ± 0.11
R61P	-0.854 ± 0.19
Q34A	-0.016 ± 0.038
L18K	-0.088 ± 0.044
K28R	-0.034 ± 0.033
L64E	0.016 ± 0.039
G12S	-0.063 ± 0.04
K1I	-0.143 ± 0.1
G67W	-0.656 ± 0.092
L2A	0.056 ± 0.035
Q34T	-0.064 ± 0.045
V17W	-0.641 ± 0.084
A57I	-0.614 ± 0.14
I47D	-0.072 ± 0.086
K62N	-0.031 ± 0.081
L64N	-0.083 ± 0.082
N54F	-0.061 ± 0.061
C13L	-0.007 ± 0.034
K53E	0.058 ± 0.044
C55V	-0.739 ± 0.06

Variant	abundance fitness
V31E	-0.052 ± 0.046
D48L	-0.437 ± 0.049
A40R	-0.043 ± 0.031
G33I	-0.121 ± 0.095
I47C	-0.438 ± 0.089
A30K	-0.165 ± 0.062
D8L	-0.646 ± 0.071
I46A	0.031 ± 0.034
Y60S	-0.535 ± 0.06
N36Q	-0.034 ± 0.056
D48T	-0.045 ± 0.046
K53D	0.083 ± 0.088
I47R	-0.406 ± 0.035
R59P	-0.737 ± 0.11
K1N	-0.12 ± 0.088
F26V	-0.738 ± 0.084
C63V	-0.863 ± 0.088
L70M	0.052 ± 0.054
C39E	-0.641 ± 0.078
N36P	-0.05 ± 0.047
G21S	-0.023 ± 0.04

Variant	abundance fitness
F26W	-0.462 ± 0.065
K76H	-0.096 ± 0.27
Y37V	-0.116 ± 0.043
K49S	-0.037 ± 0.041
N69T	0.011 ± 0.048
C63T	-0.909 ± 0.13
I50R	0.005 ± 0.033
K49T	-0.001 ± 0.051
K53P	-0.027 ± 0.046
K49M	-0.021 ± 0.051
L38C	-0.03 ± 0.056
S11G	-0.076 ± 0.036
R29M	-0.113 ± 0.046
F27W	-0.071 ± 0.038
A72G	-0.023 ± 0.032
L70W	-0.033 ± 0.04
G33A	-0.063 ± 0.037
C55I	-0.801 ± 0.32
F27Q	-0.896 ± 0.14
Q65D	0.045 ± 0.071
A10V	-0.305 ± 0.047

Variant	abundance fitness
K74Y	0.043 ± 0.15
G41D	-0.049 ± 0.05
E32W	-0.201 ± 0.046
A10R	-0.453 ± 0.042
Q65V	-0.029 ± 0.038
R73N	-0.133 ± 0.084
V25Y	-0.129 ± 0.098
C55Q	-0.838 ± 0.11
A57S	-0.02 ± 0.035
T75F	0.064 ± 0.064
Y60C	-0.694 ± 0.16
G12P	-0.318 ± 0.07
L18R	-0.036 ± 0.036
S11K	-0.005 ± 0.045
R29L	-0.017 ± 0.034
K62G	-0.105 ± 0.033
D8N	-0.147 ± 0.089
C20V	-1.11 ± 0.2
N69A	0.006 ± 0.042
C55L	-1.1 ± 0.15
V5E	-0.96 ± 0.18
